Legend:
[1] = biological target: biotinylated human IgM (human); assay: SPR; BIAcore T100, 37 °C, HBS-EP; biotinylated human IgM on streptavidin chip (biotinylated human IgG as reference), gel-filtered monomeric DBL domains injected at 20 μl/min for 2 min to equilibrium; 1:1 Langmuir isotherm
[2] = biological target: recombinant full-length DBLMSP2 (3D7), monobiotinylated (Plasmodium falciparum (3D7 strain)); assay: SPR; BIAcore T100, 37 °C, HBS-EP; biotinylated full-length DBLMSP or DBLMSP2 on streptavidin chip, purified human IgM injected 30 min at 10 μl/min to equilibrium; equilibrium fit to a simple Langmuir isotherm; values reflect overall binding avidity
[3] = biological target: recombinant full-length DBLMSP (3D7), monobiotinylated (Plasmodium falciparum (3D7 strain)); assay: as above
[4] = biological target: SPAM fragment of DBLMSP2 (3D7) (Plasmodium falciparum (3D7 strain)); assay: SEC; size exclusion chromatography of the purified Cd4-tagged proteins; markers thyroglobulin, ferritin, aldolase, conalbumin, carbonic anhydrase

Q: With “DBL domain of DBLMSP (3D7) (domain or fragment)” as the substance, how does the Kd [1] read?
A: 0.06 µM

Q: Which results are given for human IgM (natural protein)?
A: Kd [2]: 0.0011 µM; Kd [3]: 0.0003 µM

Q: How did the stoichiometry N [4] turn out when “SPAM fragment of DBLMSP2 (3D7) (domain or fragment)” was run?
A: > 4

Q: Which Kd [1] does the source give for “DBL domain of DBLMSP2 (3D7) (domain or fragment)” here?
A: 0.6 µM

From PMC4933183
